Target: SARS-CoV-1 S-2P protein (SARS-CoV-1 (human SARS coronavirus); …, stabilised)
Assay: SPR

B1: Fab22 (Fab, V domains shown)
VH: EVQLQQPGPVLVKPGASVRMSCKASGYRITDNFMNWVKQSHGKSLEWIGIINPYNGGTKYNQKFKGKATLTVDTSSSTAYMELNSLTSEDSAVYYCTRVRGNDYHGRAMDYWGQGTSVTVSS
VL: DVVLTQTPLSLPVNIGDQASISCKSTKSLLNRDGFTFLDWYLQKPGQSPQLLIYLVSNRFSGVPDRFSGSGSGTDFTLKISRVEAEDLGVYYCFQSNYLFTFGSGTKLEIK
B1 was tested, and the Kd was 7.2 nM.

— publication PMC8519809 (Cell Reports, 2021)
